Here are results for one protein from PMC2683891.

Experiment in all cases: purified protein
Common to all, as to format: biochemical, Campylobacter jejuni
Common to all, as to conditions: 100 mM HEPES pH 7.5, 200 mM KCl, 1.8 mM DTNB, 25 °C

Substrate in series [1]: CCCCCC(=O)SCCNC(=O)CCNC(=O)[C@H](O)C(C)(C)COP(=O)(O)OP(=O)(O)OC[C@H]1O[C@@H](n2cnc3c(N)ncnc32)[C@H](O)[C@@H]1OP(=O)(O)O
Substrate in series [2]: CCCCCCCCCCCCCCCC(=O)SCCNC(=O)CCNC(=O)[C@H](O)C(C)(C)COP(=O)(O)OP(=O)(O)OC[C@H]1O[C@@H](n2cnc3c(N)ncnc32)[C@H](O)[C@@H]1OP(=O)(O)O
Substrate in series [3]: CCCC(=O)SCCNC(=O)CCNC(=O)[C@H](O)C(C)(C)COP(=O)(O)OP(=O)(O)OC[C@H]1O[C@@H](n2cnc3c(N)ncnc32)[C@H](O)[C@@H]1OP(=O)(O)O
Substrate in series [4]: CCCCCCCCCCCC(=O)SCCNC(=O)CCNC(=O)[C@H](O)C(C)(C)COP(=O)(O)OP(=O)(O)OC[C@H]1O[C@@H](n2cnc3c(N)ncnc32)[C@H](O)[C@@H]1OP(=O)(O)O

B1: Cj0915 (Campylobacter jejuni subsp. jejuni NCTC 11168 = ATCC 700819) (protein)
chain: MRDMGEPKLKIVAMPSDTNPAGNIFGGWILSQIDLAGAIAARELSPERVVTISMDKVVFKEPVFIGDIISCYSKVVNVGNTSISVEVEVTAQRVDSQGCTSCINVTSALVTYVSVTRDGKKNPISEELKRIHGFLNA
Take B1: in “purified protein [1]”, the Km (usually the substrate concentration at which the rate is half of its maximum) is 39.3 ± 15.2 µM; the Vmax (in general, the top rate of the reaction or transport when substrate is in excess) amounted to 54.3 µmol/min/mg; the kcat (as a rule, the number of substrate molecules converted per active site and unit of time at saturation) was 13.4 ± 2 s⁻¹; the kcat/Km (in general, the second-order rate constant that governs catalysis at low substrate concentration) was 340000 M⁻¹ s⁻¹. In the series “purified protein [2]”, the Km is 10.6 ± 0.6 µM, the Vmax was determined as 38.9 µmol/min/mg, the kcat turned out to be 9.6 ± 0.3 s⁻¹ and the kcat/Km is 910000 M⁻¹ s⁻¹. In “purified protein [3]”, the Km was 40.8 ± 10.3 µM, the Vmax is 55 µmol/min/mg, the kcat was 13.6 ± 1.3 s⁻¹ and the kcat/Km was determined as 330000 M⁻¹ s⁻¹. In the series “purified protein [4]”, the Km came out at 13.9 ± 1.4 µM, the Vmax amounted to 63.3 µmol/min/mg, the turnover number (kcat) turned out to be 15.6 ± 0.7 s⁻¹ and the kcat/Km stood at 1.1e+06 M⁻¹ s⁻¹.
